Assay results as given in the Human Domainome abundance scans (Beltran et al. 2025).

B1: Dystrobrevin alpha, residues 235 to 294; numbered along this chain, Q9Y4J8 (parent)
chain: ENVFHPVECSYCHSESMMGFRYRCQQCHNYQLCQDCFWRGHAGGSHSNQHQMKEYTSWKS

Variants of: B1
Experiment: abundance fitness (aPCA) (normalised: wild type 0, dead -1); higher = more abundant; growth selection in yeast, the domain comes from the species named
Details: Homo sapiens

Abundance fitness, by site and new letter:
N48: Q -0.084; F -0.274; V 0.037; I -0.177; L -0.22; C -0.063; H -0.174; G -0.045; M -0.149; R -0.182; E -0.167; P 0.108; K -0.248; W -0.532; T -0.042; A 0.007; Y -0.318
Q49: Y -0.256; T 0.072; A 0.073; K -0.14; L -0.003; C -0.083; H -0.141; P -0.249; F -0.138; N 0.019; S 0.029; V -0.034; I -0.205; R 0.017; G 0.103; D 0.128
F37: N -0.401; S -0.278; Q -0.003; A -0.043; V -0.045; C -0.473; W -0.051; G -0.348; D -0.488; L -0.232; M 0.081; H -0.092; R -0.098; T -0.439; Y -0.052; I -0.087; P -0.62; E -0.101
G43: W -0.208; P -0.765; C -0.034; D 0.325; F -0.542; A -0.325; M -0.068; L -0.221; S 0.09; E 0.087; H -0.09; I -0.685; T -0.139; N 0.121; V -0.352
D35: N 0.069; Q -0.204; H 0.001; C -0.113; Y 0.011; R -0.089; A -0.093; F 0.197; V -0.084; S -0.033; G -0.235; I -0.113; P 0.025; M -0.022; W -0.33
H50: I -0.524; N -0.493; A -0.543; D -0.411; P -0.463; W -0.624; L -0.622; G -0.493; Y -0.527; E -0.516; C -0.301; V -0.686; F -0.755; K -0.438; Q -0.509; M -0.503
C33: Q -0.609; L -0.874; T -0.944; Y -0.954; G -0.78; I -0.884; N -0.592; H -0.659; F -0.625; M -0.823; V -0.836; R -0.675; S -0.658; K -0.983; W -0.811
G40: Q -0.281; R -0.206; E -0.284; D -0.166; V -0.266; S -0.229; K -0.045; N -0.138; C -0.227; I -0.27; L -0.384; F -0.193; A -0.391; W -0.352; T -0.366; M -0.404
Q51: L -0.153; P -0.091; M -0.334; W -0.517; D 0.101; T 0.042; H -0.319; G -0.234; C -0.148; F -0.536; V -0.117; I 0.009; Y 0.077; S 0.062; K 0.046; A -0.066; N -0.095
S45: Q -0.121; K 0.031; N -0.13; M -0.269; Y -0.605; H -0.291; D 0.163; G 0.099; W -0.287; E 0.065; L -0.163; T 0.098; C 0.06; R -0.159; P -0.043; I -0.394
M52: K -0.62; I -0.3; R -0.792; N -0.764; E -0.567; V -0.025; W -0.449; Y -0.18; C -0.194; H -0.87; L -0.248; S -0.628; D -0.471; F -0.005; P -0.478; Q -0.294; G -0.554
S47: K 0.038; D 0.044; H -0.091; G -0.22; L -0.333; M -0.322; I -0.25; Q -0.031; C -0.103; P -0.172; Y -0.57; F -0.455; V -0.199; W -0.051; A -0.349; E -0.028; R -0.118; N 0.029
W38: M 0.37; Q 0.228; K 0.191; H 0.014; C 0.215; A 0.305; V 0.13; T 0.349; I 0.318; E 0.287; D 0.288; P -0.146; Y 0.214; S 0.343; F 0.099; L 0.167; N 0.308; R 0.364
H46: V -0.227; Q -0.331; G -0.165; N -0.316; R -0.189; F -0.514; K -0.117; C -0.366; P -0.27; L -0.419; W -0.427; I -0.366; E -0.198; D -0.2; T -0.219; Y -0.538; M -0.17; A -0.186
R39: A 0.142; F -0.34; P -0.495; C -0.071; T -0.107; M -0.072; D -0.083; L -0.08; S 0.062; K 0.228; V -0.202; N 0.086; Y -0.099; E 0.074; H 0.092; W -0.282; I -0.308; Q 0.116; G 0.011
C36: D -0.624; I -0.733; Y -0.734; L -0.817; Q -0.723; P -0.565; K -0.192; G -0.596; F -0.994; S -0.992; R -0.695; W -0.94; M -0.723; A -0.881; V -0.873
H41: M -0.014; Y -0.127; V 0.122; K 0.089; R 0.067; L -0.038; F -0.044; D -0.296; G -0.312; Q 0.146; P -0.192; E -0.09; A 0.013; I -0.284; C 0.013; S 0.037; W -0.323; N 0.063
A42: M -0.04; I -0.372; N -0.077; V 0.005; W -0.29; D -0.253; L -0.285; P -0.421; R -0.032; H 0.05; Q -0.071; G -0.026; E 0.081; K -0.224; Y -0.381; T -0.054
Q34: E 0.044; F -0.394; A -0.053; Y -0.147; N -0.146; H -0.156; V -0.169; W -0.606; T -0.19; R -0.047; S -0.087; K 0.127; G -0.027; D -0.267; P -0.163; M -0.302; L -0.423
G44: S -0.209; T -0.26; H -0.818; D 0.077; M -0.384; L -0.621; C -0.362; Q -0.841; E -0.303; K -0.177; V -0.234; Y -0.411; W -0.616; F -1.15; P -0.523; N -0.285; I -0.719
